Target: E5 C77S mutant
Experiment: SEC; analytical gel filtration, Superdex 75 10/300 GL, 0.5 ml/min, 50 mM phosphate buffer with 150 mM NaCl, in the presence of a reducing agent; mass from protein standards

stoichiometry N: 6
Substance: E5 C77S mutant (enzyme)

Source: article PMC7949104
